Source: publication doi:10.1101/2021.06.09.447716

Biological target: BACE1-GFP (UniProt P56817)
Experiment: co-IP

UniProt P56817, sequence (P56817 46-501): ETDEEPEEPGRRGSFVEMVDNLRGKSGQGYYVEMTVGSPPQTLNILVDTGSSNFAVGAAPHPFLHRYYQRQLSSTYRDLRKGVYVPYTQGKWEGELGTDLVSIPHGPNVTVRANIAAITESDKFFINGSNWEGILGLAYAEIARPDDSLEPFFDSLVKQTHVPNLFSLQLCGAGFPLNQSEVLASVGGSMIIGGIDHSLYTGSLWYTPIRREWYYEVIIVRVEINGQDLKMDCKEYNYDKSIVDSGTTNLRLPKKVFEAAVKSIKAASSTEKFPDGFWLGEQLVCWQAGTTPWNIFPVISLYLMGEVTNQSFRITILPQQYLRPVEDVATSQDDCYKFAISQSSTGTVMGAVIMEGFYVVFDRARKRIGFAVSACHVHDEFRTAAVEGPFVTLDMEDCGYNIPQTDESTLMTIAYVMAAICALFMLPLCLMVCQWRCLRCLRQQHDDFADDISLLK

reduction of co-immunoprecipitated Bin1 against Bin1-WT: 65%
Substance: Bin1-KR (neuronal Bin1-MYC with the LOAD mutation K358R, rs138047593) (from UniProt O08539-1 1-588) (natural protein)
